# From the domain aggregation screens of Martell et al. (2025)
# Test: soluble fraction after stress (log2 fold change); higher = more stays soluble; pooled small domains, quantitative proteomics
# Details: stress: pH 4
# Summary of the method: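 How much of each domain stays soluble after acid stress, expressed as a fold change, is used to gauge aggregation propensity. Pooled custom libraries of small domains underwent pH 4 stress before high-throughput quantitative proteomics. A higher log2 value means more of the domain stayed soluble.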
row,Sequence,soluble fraction (log2)
1,HMLGKSNAERQLDLILGAIERSITGVSRSKLMQAYHLDSRGATAAFETLEQRGLITRSKSGRTELLIPTRV,0.126
2,HMLGWEDVIQFEEVKGYGQHIWRDGNHLYYVTEEGGIAPQRVVYELPNELFALLESGERTQLEILSKLQ,-2.35
3,HMLHNEFINDRIQSAINNLSEHFKIVIILRDIQELSYEEISNIVEVPLGTIKSRINRARIQLQAELLDL,0.103
4,HMLILDTDGRYVIKRGDSLSEILEKIANGSNINLNLLKRAFVTANPKAFKRANPNWMYANAR,-0.145
5,HMLIPTISVTKEGQLRFENIPVSWEELGTRLRDVSDLDKIKIYADAESDALTISEIMKTAANVGIVQFVLV,-1.13
6,HMLIRKGVVSFFNDAKGYGFIKDLVTQESAFVHVNSLSETIKEHDKVTFEVEMGHKGANAVNVKLVK,-0.72
7,HMLIVLKPNVSQEEIDHIVDKIRSLSLEPHVSTGVQRTIITVIGDEDVIREQPLEALAGVESVKSILKP,-0.144
8,HMLKGTVKWFNESKGFGFIEQEEGKDVFVHYSAITGSGFKTLNEGDKVQFEIVDGPKGPAAANVSK,-0.927
9,HMLKKGDQVYIISGKDKGKLGVVSQIVSEERILVDGINLAKKHVKPNPNKNETGGVVEKEMPIHASNVMI,-0.702
10,HMLKLTDRQKVILSILMSDGEKTASWIASQLGVGLRSVQLDLSYLRNNGFIKKASKSTHSAWIVLKK,0.205
11,HMLKPIHKDWSPNGDAKEILLKAGITEEFIQKELPEFIMYWSERNEESDIWNSKFIAHIRRRWGRFS,-1.23
12,HMLKPVVLLGARGLTDAVEKEVERALDEHGLIKIHVPSDDREERDEIYTTLADKLNAARIQAIGKMLVLW,-0.00783
13,HMLKSGSAVAQARDVILEKGVPVHINEILDALGKGDTREAKASLTSSLAAYVRRGEIFTRPAPNTFGLVEL,-0.378
14,HMLKTADAIASVLLTRIQAGEFSAGRLPAERALSEAFSTTRITLREALGKLEAQGMIYRELRRGWFIA,-1.3
15,HMLLFNPGEVLKGFVLQSGTNNRVLLQIGDSRVIADTQTPLKAGEQLVLRVEETGPKTILQILG,0.0206
16,HMLLGDYIQKLRNQRGLSQQEFADKLGIGRSTLANYEQNKRSPDYETLIEISKFFNVSIDELLGV,-0.342
17,HMLLLASTPAEQTIIQLLAEGWRDGDQLQQRSHLSAADFSTALTMLEVNGSIKPLGANHWALTH,-0.185
18,HMLLPANLTKSQRNIAERVARGQSNLEIAADLNITERTVKAHLTSIYEKTKTGNRLNLALLINLG,-0.17
19,HMLLPGEELRVMIIQEGKEYGQGVGYLDDGTMVVVEDGQRALNRTENVVVTKVLQTTAGRMIFAK,-0.975
20,HMLLQENRKLHSKLEELQLISRAKAVLIEYLKLTEPQAHRYIEKQAMDLGLTRPQVALNILKTYE,0.21
21,HMLLQTAVISTDIVNMRAEPTTNSSVIRKLTKGSDITINQEKDGWYKISDDQGNSGWIVTWAAKPT,-0.0639
22,HMLMDVRVPDIIGVEINQAKEILTASSLLIGKITYVSLPEIEKDLVIETSVLAGRRVSAGTVIDITVNKE,-0.87
23,HMLMKPQKTRDVLRYLKSIGWVRLRGGQGSHEIWGLPDGSIRAVIPAGHREISAGVLMQLKRAGVDVPTQW,-0.0803
24,HMLMLTPGQIAQTLDVSTATVRRWSARYARHLSPNTPGKKRSYTVDDLAVLTRVRDLSATGTPLAQIDQAL,0.151
25,HMLMLTPGQVSNSLNVSTATVRRWSARFARHLSPQPPNRKRSYTPDDLATLARVRDLSASGTSLAQIDIAL,-0.29
26,HMLMRSPDFLIGWFQNLVAKRETFNDQVQAKNLIEAGKQHIQGEDFDRLLEVNRRLFSLLPQREQE,-1.27
27,HMLNAPFGFRIEDDTLIPIPEEAKVVRQIFRYYLQGMGFGKIAQELNGQDVPGKPWGKERIKYILSNEKYI,-0.0934
28,HMLNERQKKIIKILKDNKNWMTGKELSEFLNVSDRTIRSDIEYINRYNNALIESNVKNGYHLNFE,-0.0338

row,Sequence,soluble fraction (log2)
1,HMLNIVTIFEEQFGRPLSPIELNIIKDWKESDYSDEMIVKALKEAVKSQVLNFRYVEGILNNWAKNG,-1.08
2,HMLNLNEAEKSIYVLIKKNESNNLNKVKEDSNLSNKAWDKGIKNLVKNNLVKVVKSNEGLFIQLV,0.196
3,HMLNLNILTDKEKFIAKLISRGLSDSLIAKELYISISTVRSHVNSIYGKTNIKNRSHLASSFLYFELGNLL,-0.0771
4,HMLNPMILLTKGGENIRLDKFLSSHLSDLSRTQIQKMVKEGLVLVNGEPSKVGLKLDGSETIQYTLPK,0.254
5,HMLNSISIKTNKKIDFLEKNEHLVNFVYEKETMEHIYNLSYENKKDLQELQNKLSDIEGIIKINTDL,-2.18
6,HMLPDVSITGHIFIRSGSRLNRIFVGESTYHVGDMLDGKWLIESINSDSLELRSGTQTTELPL,-0.066
7,HMLPDYLIELKKKADSGDAVSQNDIGNIYLYGLPRVNIYPDEKNIGIGIDYLYKAAWQDQVNAMTTI,-0.397
8,HMLPELQPGQTFSARIQQALPDNTYRALVAGKQLTLQLPEGAKAGDELELVVLDRSARVIIARQVD,0.336
9,HMLPGERFKVKIAQAGKEKKQGIGYLNDGTMVVIENGIEKVGEEVEAVVIKVIQSSAGKIIFSEVAK,0.0394
10,HMLPGKEIPLPEFLREAFARNEPALENFQNLAPSYRRQYILWITSAKTPETVQKRISESIGLLKENRKLGM,-0.0786
11,HMLPGLGPIERAQFMLQAIPGISPTRSAALIDKFGSIAGIAQASIKDIQTIEGIGKKTATTLYEVLNAG,-0.223
12,HMLPISGDDRDALDMAALILKQYDSLPILKEFANVVTKLQTVLDGVVSNSIEARRQMIQFEE,-0.48
13,HMLPITPGQKYKFVVKSAEEAAAIIRDKLGEMAQVISVRQVEGEGLARFLKSPKLEIIAQVPVA,-0.349
14,HMLPLGSNEYETAVIKHLASGVQDADEIQRLTGIDQTSLNTALTMLELAGTIRPLGNNHWTL,0.22
15,HMLPLHFIEIVSLKKIDTLTKRKELINYAFSKNEKTYIYKLAFKKKSELDNLYKEINLFNEIINIDIRHS,-0.943
16,HMLPLPRFASLDSSEANLRAGPGKDYPILWVYQRKGLPVEIIQEFDTWRRIRDRDGTVGWVQQNLL,-0.568
17,HMLPNIKSEMEILGDNAKARLEAAELWSKKYLSNEAYDTMSKLATTADGVKAIEEIMNITKS,-0.274
18,HMLPSELLAQQRIVVQPGHNLWRIARATYGRGARYTVIYQANREQIADPNRIFPGQVFALPAA,-0.227
19,HMLPSMENWLGELSFWQTPWWERRDFSTFDNIAQSKEELDEFMSRDDNGAILERMQDPINTIEAE,-0.682
20,HMLQGKVSFFNDEKGYGFIKDNNSKDSYFVHINKVEGEIAEGDKVTFELEKGPKGLVAANVKR,-0.145
21,HMLQIGDEEFIENIVKQVIDENQKAVDDYKKGKEKVMAFLIGQVMKKTKGKVNSEIVEKTIKKL,-0.565
22,HMLQKEVHQQIQQALRALPYHQRTAIVLYYYEGMSVKEIAQATGSMQGTVQSRLFFARKKLRPILESILKK,-2.39
23,HMLQQNRAVEAEQLARKGLSYAQSNIQQAALWRLVAEATEQQGKVDAALNAKNKAMQLEMAG,0.353
24,HMLRTLSTSEFAEAIGISESSARRLADSGDLRIRRTKGGHRKIPAEEAIRYAREIQATVVRPDLLGLST,-0.151
25,HMLRVVSTRQAFDIVRGWADAHPQDPEHNKTLDELEELAKKEVWDDWSRTNEIAERLNALLVSIGANVRTA,-0.314
26,HMLSDEEKMAALNEQARQRGFTISPGVLPYLITHYQRDMHSLSMILDALDRYSLQTKRTITLPLLHDLLQQ,-0.228
27,HMLSKEFRFFTYLLESYAQHKNTTAGAVLKTLDEKGLTDFVYKMYDLYHVEAIENAYMDLDSLIATGKPA,-0.989
